Test results reported in US20240076406A1 (NATIONAL RESEARCH COUNCIL OF CANADA, published 2024).
Values belong to the binder of their own block, whether it stands above or below them.

Columns and labels:
human CA-II = human CA-II (human, UniProt P00918 1-260); assay: ELISA on purified protein, binding above background
human CA-XII = molecular target: T1, human CA-XII (human, UniProt O43570 25-291, limits assumed); assay: as above
T1 construct: also called carbonic anhydrase XII

human CA-XIV = molecular target: T2, human CA-XIV (human, UniProt Q9ULX7 16-290, limits assumed); assay: as above
T2 construct: also called carbonic anhydrase XIV

human CA-IV = molecular target: T3, human CA-IV (human, UniProt P22748 19-283, limits assumed); assay: as above
T3 construct: also called carbonic anhydrase IV

mouse CA-IX [1] = molecular target: T4, mouse CA-IX (mouse, UniProt Q8VHB5 32-390, limits assumed); assay: as above
[2] = molecular target: T5, hCA-IX ECD dimer (dimeric extracellular domain of hCA-IX) (human, UniProt Q16790 38-414); assay: SPR; CA-IX immobilized on SA sensor chip, VHH injected
Method: (§1) In vitro binding affinity/SPR. To evaluate the binding affinity (KD) of the VHH only format of the 4 single domain antibodies, CA-IX monomer and dimer were immobilized on SA sensor chip (GE Healthcare) and serial dilutions of the sdAbs were injected over the surface (FIG. 3A).

[3] = molecular target: hCA-IX-ECD monomeric (monomeric parental CA-IX extracellular domain) (human, UniProt Q16790 38-414); assay: as above
Method: as §1

[4] = molecular target: T5, hCA-IX ECD dimer (dimeric extracellular …); assay: cell-based or functional assay
mouse CA-IX [5] = molecular target: T4, mouse CA-IX; assay: ELISA on purified protein, 500 nM VHH, binding above background
Method: Cross reactivity and CA-IX specificity. Binding specificity and species cross reactivity of two sdAb were tested in an ELISA assay using purified proteins for human, mouse, cynomolgus monkey and dog CA-IX.

T3 sequence (P22748 19-283 limits assumed): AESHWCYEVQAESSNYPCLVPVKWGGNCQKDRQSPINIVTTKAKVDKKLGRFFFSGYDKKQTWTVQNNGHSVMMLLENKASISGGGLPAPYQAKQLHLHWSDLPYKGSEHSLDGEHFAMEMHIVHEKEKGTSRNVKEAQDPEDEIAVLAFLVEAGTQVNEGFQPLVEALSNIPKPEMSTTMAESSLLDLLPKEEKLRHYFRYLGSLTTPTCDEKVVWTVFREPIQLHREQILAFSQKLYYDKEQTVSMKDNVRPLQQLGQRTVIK
T1 sequence (O43570 25-291 limits assumed): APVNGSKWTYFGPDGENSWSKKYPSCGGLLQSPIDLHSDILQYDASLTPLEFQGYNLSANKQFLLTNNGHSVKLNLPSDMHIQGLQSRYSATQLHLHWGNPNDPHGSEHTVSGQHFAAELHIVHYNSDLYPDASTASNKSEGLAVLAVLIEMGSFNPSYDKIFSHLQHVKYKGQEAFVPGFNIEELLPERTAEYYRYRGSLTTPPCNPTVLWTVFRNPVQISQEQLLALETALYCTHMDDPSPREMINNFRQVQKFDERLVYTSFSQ
T4 sequence (Q8VHB5 32-390 limits assumed): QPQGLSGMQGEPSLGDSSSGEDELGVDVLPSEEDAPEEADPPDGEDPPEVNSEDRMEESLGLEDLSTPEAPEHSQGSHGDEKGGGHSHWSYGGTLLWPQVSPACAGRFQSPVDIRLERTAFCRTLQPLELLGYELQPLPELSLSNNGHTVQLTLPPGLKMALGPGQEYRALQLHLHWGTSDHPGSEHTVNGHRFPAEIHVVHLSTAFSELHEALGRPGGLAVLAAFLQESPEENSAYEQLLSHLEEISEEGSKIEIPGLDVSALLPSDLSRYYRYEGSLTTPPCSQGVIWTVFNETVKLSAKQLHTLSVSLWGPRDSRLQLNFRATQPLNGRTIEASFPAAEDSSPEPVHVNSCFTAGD
T2 sequence (Q9ULX7 16-290 limits assumed): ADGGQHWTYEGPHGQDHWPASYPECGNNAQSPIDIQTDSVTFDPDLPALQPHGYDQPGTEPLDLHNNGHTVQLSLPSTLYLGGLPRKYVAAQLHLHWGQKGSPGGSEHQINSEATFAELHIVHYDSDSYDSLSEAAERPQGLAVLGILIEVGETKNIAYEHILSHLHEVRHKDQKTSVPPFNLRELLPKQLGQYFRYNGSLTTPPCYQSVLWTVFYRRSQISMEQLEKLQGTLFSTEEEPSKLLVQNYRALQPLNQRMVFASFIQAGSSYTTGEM

binding result (human CA-II): no binding (tested: 500 nM)
binding result (human CA-XII): no binding (tested: 500 nM)
binding result (human CA-XIV): no binding (tested: 500 nM)
binding result (human CA-IV): no binding (tested: 500 nM)
binding result (mouse CA-IX [1]): no binding (tested: 500 nM)
Kd [2]: 176 nM
Kd [3]: 234 nM
IC50 (hCA-IX in vitro enzyme activity, 4Mu-Ac hydrolysis) [4]: 0.0484 µM (unit not printed; the text gives the values in nM)
logIC50 (hCA-IX in vitro enzyme activity, 4Mu-Ac hydrolysis) [4]: -1.13 log10 of IC50 (IC50 in µM; unit not printed)
B1: sdCA9-2-VHH (VHH)
VHH: QVKLEESGGDLVQPGGSLRLSCAASGFTLDYYAIGWFRQAPGKEREGVSCFSSVDGSTYYADSVKGRFTISRDNAKNMVYLQMNSLKPEDTAIYYCAAELYGELGVATVQAMCRLTTPGGDYWGQGTQVTVSS
notes: Llama VHH expressed in E. coli from the pSJF2 vector and purified by IMAC

Kd [2]: 341 nM
Kd [3]: 314 nM
B2: sdCA9-3-VHH (VHH)
VHH: QVQLVESGGGLVQAGDSLRLSCAASGGTFSRYGMGWFRQAPGKEREFVAAISGTGLNTYYMDSVKGRFTISRDNAENTVYLQMNSLKPEDTAVYYCARDRGGVEYDYWGQGTQVTVSS
notes: Llama VHH expressed in E. coli from the pSJF2 vector and purified by IMAC; also called sdCA9-3-VHH-VHH

binding result (human CA-II): no binding (tested: 500 nM)
binding result (human CA-XII): no binding (tested: 500 nM)
binding result (human CA-XIV): no binding (tested: 500 nM)
binding result (human CA-IV): no binding (tested: 500 nM)
Kd [2]: 37 nM
Kd [3]: 28.9 nM
IC50 (hCA-IX in vitro enzyme activity, 4Mu-Ac hydrolysis) [4]: 0.111 µM (unit not printed; the text gives the values in nM)
logIC50 (hCA-IX in vitro enzyme activity, 4Mu-Ac hydrolysis) [4]: -0.954 log10 of IC50 (IC50 in µM; unit not printed)
binding result (mouse CA-IX [5]): binds
B3: sdCA9-1-VHH (VHH)
VHH: QVQLVESGGGLVQAGGSLRLSCAASGFTFDDWAIGWFRQAPGKEREGVSCISKRHGTTHYADSVKGRFTISSDNAKNTVYLRMNGLKPEDTAVYYCAASSWGSCTVATMRDVDRYDYDYWGQGTQVTVSS
notes: as for B1
